From article PMC9963752 (Proceedings of the National Academy of Sciences of the …, 2023)
No end group written: not given here.

Experiments:
[1] = test system: GRPR; conditions: relative to PD176252 (methoxy group replaced by hydrogen); cited from earlier work
[2] = target: GRPR with alanine mutation of C93^2.57 (human, UniProt P30550 1-384, alanine mutation of C93^2.57); assay: cell-based or functional assay
[3] = target: GRPR with alanine mutation of Q120^3.30 (human, UniProt P30550 1-384, alanine mutation of Q120^3.30); assay: cell-based or functional assay

## C[C@@](Cc1c[nH]c2ccccc12)(NC(=O)Nc1ccc([N+](=O)[O-])cc1)C(=O)NCC1(c2ccccn2)CCCCC1 [PD168368]
[1]
  reduction for GRPR binding: 17 fold

B1: gastrin-releasing peptide (peptide)
peptide: VPLPAGGGTVLTKMYPRGNHWAVGHLM-NH2
[2]
  GRP-induced calcium mobilization in transfected CHO cells: EC50 against WT-GRPR: 12 fold
[3]
  GRP-induced calcium mobilization in transfected CHO cells: EC50 against WT-GRPR: 25 fold
